Patent US20250376519A1 (JIANGSU HENGRUI PHARMACEUTICALS, published 2025)
Positions count from the first letter of the chain named. Values belong to the binder of their own block, whether it stands above or below them.

Tests used:
[1] = molecular target: T1, human DLL3 on cells (human, UniProt Q9NYJ7 27-618); test: flow cytometry, H1184 cells
T1 construct: Endogenous on H1184 and SHP77; Cell line is named under assay; also called H1184; DLL3/H82
T1 sequence: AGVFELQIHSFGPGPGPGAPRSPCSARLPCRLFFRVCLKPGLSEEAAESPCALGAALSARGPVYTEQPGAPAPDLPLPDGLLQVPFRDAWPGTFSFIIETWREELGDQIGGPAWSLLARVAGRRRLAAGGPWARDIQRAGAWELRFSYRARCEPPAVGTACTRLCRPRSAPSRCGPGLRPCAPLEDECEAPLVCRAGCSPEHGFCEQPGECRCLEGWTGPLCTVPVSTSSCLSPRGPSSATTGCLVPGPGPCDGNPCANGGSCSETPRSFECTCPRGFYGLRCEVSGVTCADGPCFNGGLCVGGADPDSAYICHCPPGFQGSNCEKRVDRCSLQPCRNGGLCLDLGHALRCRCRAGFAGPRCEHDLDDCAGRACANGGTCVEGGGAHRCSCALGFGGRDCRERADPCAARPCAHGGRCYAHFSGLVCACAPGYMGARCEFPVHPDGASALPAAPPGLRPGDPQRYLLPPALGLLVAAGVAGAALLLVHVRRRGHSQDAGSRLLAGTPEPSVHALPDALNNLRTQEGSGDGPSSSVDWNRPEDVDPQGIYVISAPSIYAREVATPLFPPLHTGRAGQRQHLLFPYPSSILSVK
Description: The plates were centrifuged at 300 g for 5 min, and the supernatant was removed. Different concentrations of test antibodies were added at 100 μL/well. The plates were incubated in the dark in a refrigerator at 4° C. for 1 h. After 3 centrifugal washes at 300 g, working concentrations of APC anti-human IgG Fc (BioLegend, 410712) or PE F(ab′)2-goat anti-human IgG (invitrogen, H10104) were added. The plates were incubated in the dark in a refrigerator at 4° C. for 40 min. After 3 centrifugal washes at 300 g, the geometric mean fluorescence intensity was measured on an Invitrogen flow cytometer, and the EC50 values for the binding of the antibodies to DLL3-expressing cells were calculated.

[2] = molecular target: T2, human DLL3 (ACRO, DLL3-H52H4) (human, UniProt Q9NYJ7 27-492); test: SPR Biacore 8K, Ab captured on Protein A
T2 construct: Bought
T2 sequence: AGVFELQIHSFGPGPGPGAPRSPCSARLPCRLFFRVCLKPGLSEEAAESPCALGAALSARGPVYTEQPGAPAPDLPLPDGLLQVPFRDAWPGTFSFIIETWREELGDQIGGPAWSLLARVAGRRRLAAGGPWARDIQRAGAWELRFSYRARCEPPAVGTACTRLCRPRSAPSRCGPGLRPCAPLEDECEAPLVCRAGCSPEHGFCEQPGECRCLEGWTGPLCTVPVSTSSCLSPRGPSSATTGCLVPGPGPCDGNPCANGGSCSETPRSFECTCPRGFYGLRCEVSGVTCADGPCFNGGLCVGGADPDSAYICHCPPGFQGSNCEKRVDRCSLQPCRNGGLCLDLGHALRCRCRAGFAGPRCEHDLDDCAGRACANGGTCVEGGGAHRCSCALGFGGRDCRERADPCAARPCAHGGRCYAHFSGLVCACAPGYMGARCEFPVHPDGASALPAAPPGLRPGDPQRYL
Method in brief: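 Antibodies captured on a Protein A chip for 18 s; DLL3 or CD3D&3E antigen flowed 180 s, then 600 s dissociation, with real-time detection. Regeneration used 10 mM glycine-HCl pH 1.5 between cycles. Kinetics were obtained by 1:1 model fitting.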

EC50 [1]: 0.04 nM
Emax [1]: 1960
Kd [2]: 0.363 nM
koff [2]: 0.000749 s⁻¹
kon [2]: 2.06e+06 M⁻¹ s⁻¹
B1: hu6L2H11 (antibody, human IgG1, kappa, V domains shown)
VH: EVQLVQSGSELKKPGASVKVSCKASGYTFTDYYMNWVKQAPGQGLEWMGIINPYSGVTIYNHKFKGRFVLSVDKSSNTAYLQISSLKAEDTAVYYCARQDSLLDYAMDYWGQGTTVTVSS
VL: DIQMTQSPSSLSASVGDRVTITCHASQGISGNMGWLQQKPGKAPKGLIYHGANLEDGVPSRFSGSGSGADYTLTISSLQPEDFATYYCVQYAQFPYTFGGGTKVEIKR

EC50 [1]: 0.07 nM
Emax [1]: 2200
Kd [2]: 3.06 nM
koff [2]: 0.00205 s⁻¹
kon [2]: 670000 M⁻¹ s⁻¹
B2: hu6L2H7 (antibody, human IgG1, kappa, V domains shown)
VH: EVQLVESGGGLVQPGGSLKLSCAASGYTFTDYYMNWVRQASGKGLEWVGIINPYSGVTIYNHKFKGRFTLSVDKSKNTAYLQMNSLKTEDTAVYYCARQDSLLDYAMDYWGQGTTVTVSS
VL: B1 VL

EC50 [1]: 0.09 nM
Emax [1]: 2120
Kd [2]: 0.322 nM
koff [2]: 0.000695 s⁻¹
kon [2]: 2.16e+06 M⁻¹ s⁻¹
B3: hu6L4H13 (antibody, human IgG1, kappa, V domains shown)
VH: B1 VH with V69A
VL: B1 VL with T85D
notes: also called hu6L4VH13

EC50 [1]: 0.1 nM
Emax [1]: 2100
Kd [2]: 0.382 nM
koff [2]: 0.000803 s⁻¹
kon [2]: 2.1e+06 M⁻¹ s⁻¹
B4: hu6L2H13 (antibody, human IgG1, kappa, V domains shown)
VH: B1 VH with V69A
VL: B1 VL

EC50 [1]: 0.05 nM
Emax [1]: 2130
Kd [2]: 0.391 nM
koff [2]: 0.000805 s⁻¹
kon [2]: 2.06e+06 M⁻¹ s⁻¹
B5: hu6L4H12 (antibody, human IgG1, kappa, V domains shown)
VH: B1 VH with K38R, V69A
VL: B1 VL with T85D

EC50 [1]: 0.07 nM
Emax [1]: 2190
Kd [2]: 0.314 nM
koff [2]: 0.000672 s⁻¹
kon [2]: 2.14e+06 M⁻¹ s⁻¹
B6: hu6L4H11 (antibody, human IgG1, kappa, V domains shown)
VH: B1 VH
VL: B1 VL with T85D

Emax [1]: 2310
Kd [2]: 0.55 nM
koff [2]: 0.000668 s⁻¹
kon [2]: 1.22e+06 M⁻¹ s⁻¹
B7: hu98L2H2 (antibody, human IgG1, kappa, V domains shown)
VH: EVQLVESGGGLVQPGGSLRLSCAASGFTFSDYGIHWVRQAPGKGLEWVAYISSGGYTIYYADTVKGRFTISRDNAKNSLYLQMNSLRAEDTAVYYCARGDYEDIFYTMDYWGQGTTVTVSS
VL: DIQMTQSPSSLSASVGDRVTITCRASRDITKFLNWYQQKPGKAVKLLIYYTSRLHSGVPSRFSGSGSGTDYTLTISSLQPEDFATYYCQQGNTLPWTFGGGTKVEIKR

Emax [1]: 2820
Kd [2]: 1.1 nM
koff [2]: 0.00171 s⁻¹
kon [2]: 1.55e+06 M⁻¹ s⁻¹
B8: hu98L1H1 (antibody, human IgG1, kappa, V domains shown)
VH: B7 VH with E102D
VL: B7 VL with V44P, Y71F

Emax [1]: 2440
Kd [2]: 0.232 nM
koff [2]: 0.000372 s⁻¹
kon [2]: 1.6e+06 M⁻¹ s⁻¹
B9: hu98L3H1 (antibody, human IgG1, kappa, V domains shown)
VH: B7 VH with E102D
VL: B7 VL with K42G

Emax [1]: 1600
Kd [2]: 1.11 nM
koff [2]: 0.00151 s⁻¹
kon [2]: 1.36e+06 M⁻¹ s⁻¹
B10: hu98L3H4 (antibody, human IgG1, kappa, V domains shown)
VH: B7 VH with I58S
VL: B7 VL with K42G

Emax [1]: 2470
Kd [2]: 0.269 nM
koff [2]: 0.000389 s⁻¹
kon [2]: 1.45e+06 M⁻¹ s⁻¹
B11: hu98L2H1 (antibody, human IgG1, kappa, V domains shown)
VH: B7 VH with E102D
VL: B7 VL

Emax [1]: 1540
Kd [2]: 1.22 nM
koff [2]: 0.00173 s⁻¹
kon [2]: 1.42e+06 M⁻¹ s⁻¹
B12: hu98L3H5 (antibody, human IgG1, kappa, V domains shown)
VH: B7 VH with I34M, I58S
VL: B7 VL with K42G
